# Measured values as given in patent US20240392004A1 (IMMUNOWAKE, published 2024).
# Changes are numbered by the printed parent chain. Names may count otherwise.
# T1: mouse PD-1 (mouse, UniProt Q02242 25-167, limits assumed)
# T1 construct: also called mPD-1
# T1 sequence (looked up): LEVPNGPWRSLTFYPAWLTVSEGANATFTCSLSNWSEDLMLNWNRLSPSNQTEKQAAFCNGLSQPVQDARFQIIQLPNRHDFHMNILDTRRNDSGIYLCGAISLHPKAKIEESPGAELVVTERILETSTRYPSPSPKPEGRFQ
# B1: PD-L1(mut7)-Fc, I54Q/E58M/R113T/M115L/S117A (Fc fusion)
# chain 1: FTVTVPKDLYVVEYGSNMTIECKFPVEKQLDLAALQVYWMMEDKNIIQFVHGEEDLKVQHSSYRQRARLLKDQLSLGNAALQITDVKLQDAGVYTCLIAYGGADYKRITVKVNAPYNKINQRILVVDPVTSEHELTCQAEGYPKAEVIWTSSDHQVLSGKTTTTNSKREEKLFNVTSTLRINTTTNEIFYCTFRRLDPEENHTAELVIPELPLAHPPNERGGGGSGGGDKTHTCPPCPAPEDEGGPSVFLFPPKPKDTLMISRTPEVTCVVVDVSHEDPEVKFNWYVDGVEVHNAKTKPREEQYNSTYRVVSVLTVLHQDWLNGKEYKCKVSNKALPAPIEKTISKAKGQPREPQVYVYPPSREEMTKNQVSLTCLVKGFYPSDIAVEWESNGQPENNYKTTPPVLDEDGSFALVSKLTVDKSRWQQGNVFSCSVMHEALHNHYTQKSLSLSPGK
# chain 2: B1 chain 1 with D242K, E243K, Y359L, T374L, N398R, K400M, T402W, E408S, A413F, V415Y
# B2: PD-L1(mut3)-Fc, I54Q/R113T/M115L/S117A/G119K (Fc fusion)
# chain 1: FTVTVPKDLYVVEYGSNMTIECKFPVEKQLDLAALQVYWEMEDKNIIQFVHGEEDLKVQHSSYRQRARLLKDQLSLGNAALQITDVKLQDAGVYTCLIAYKGADYKRITVKVNAPYNKINQRILVVDPVTSEHELTCQAEGYPKAEVIWTSSDHQVLSGKTTTTNSKREEKLFNVTSTLRINTTTNEIFYCTFRRLDPEENHTAELVIPELPLAHPPNERDKTHTCPPCPAPEDEGGPSVFLFPPKPKDTLMISRTPEVTCVVVDVSHEDPEVKFNWYVDGVEVHNAKTKPREEQYNSTYRVVSVLTVLHQDWLNGKEYKCKVSNKALPAPIEKTISKAKGQPREPQVYVYPPSREEMTKNQVSLTCLVKGFYPSDIAVEWESNGQPENNYKTTPPVLDEDGSFALVSKLTVDKSRWQQGNVFSCSVMHEALHNHYTQKSLSLSPGK
# chain 2: B2 chain 1 with D234K, E235K, Y351L, T366L, N390R, K392M, T394W, E400S, A405F, V407Y
# B3: PD-L1(mut5)-Fc, I54Q/E58M/R113T/S117A/G119K (Fc fusion)
# chain 1: B2 chain 1 with E40M, L97M
# chain 2: FTVTVPKDLYVVEYGSNMTIECKFPVEKQLDLAALQVYWMMEDKNIIQFVHGEEDLKVQHSSYRQRARLLKDQLSLGNAALQITDVKLQDAGVYTCMIAYKGADYKRITVKVNAPYNKINQRILVVDPVTSEHELTCQAEGYPKAEVIWTSSDHQVLSGKTTTTNSKREEKLFNVTSTLRINTTTNEIFYCTFRRLDPEENHTAELVIPELPLAHPPNERDKTHTCPPCPAPEKKGGPSVFLFPPKPKDTLMISRTPEVTCVVVDVSHEDPEVKFNWYVDGVEVHNAKTKPREEQYNSTYRVVSVLTVLHQDWLNGKEYKCKVSNKALPAPIEKTISKAKGQPREPQVYVLPPSREEMTKNQVSLLCLVKGFYPSDIAVEWESNGQPENRYMTWPPVLDSDGSFFLYSKLTVDKSRWQQGNVFSCSVMHEALHNHYTQKSLSLSPGK
# B4: PD-L1(mut6)-Fc, I54Q/E58M/R113T/M115L/G119K (Fc fusion)
# chain 1: B2 chain 1 with E40M, A99S
# chain 2: B3 chain 2 with M97L, A99S
# B5: PD-L1(mut4)-Fc, I54Q/E58M/M115L/S117A/G119K (Fc fusion)
# chain 1: B2 chain 1 with E40M, T95R
# chain 2: B3 chain 2 with T95R, M97L
# Molecular target: T1, mouse PD-1
# Assay: PD-L1-Fc format, calibrated on PD-L1(wt)-Fc, method not stated
row,Kd,Binder
1,110 nM,B1
2,820 nM,B2
3,1100 nM,B3
4,420 nM,B4
5,980 nM,B5

# Molecular target: T2, human PD-1 (human, UniProt Q15116 25-167, limits assumed)
# T2 construct: also called hPD-1
# T2 sequence (Q15116 25-167 limits assumed): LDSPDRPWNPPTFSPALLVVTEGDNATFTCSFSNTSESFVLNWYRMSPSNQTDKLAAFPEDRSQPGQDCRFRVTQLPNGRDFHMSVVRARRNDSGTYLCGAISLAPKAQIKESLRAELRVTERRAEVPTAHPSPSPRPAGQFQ
# Assay: as above
row,Kd,Binder
1,98 nM,B1
2,910 nM,B2
3,1200 nM,B3
4,555 nM,B4
5,1090 nM,B5
